Article PMC5247666, “The Production and Utilization of GDP-glucose in the Biosynthesis of Trehalose 6-Phosphate by Streptomyces venezuelae*” (The Journal of Biological Chemistry, 2016)

How the values were obtained:
SVEN_3027 = molecular target: T1, SVEN_3027 (Streptomyces venezuelae, UniProt F2R7M8); test: stopped coupled assay of pyrophosphate (inorganic pyrophosphatase, malachite green); format: biochemical; conditions: glucose 1-phosphate as co-substrate
T1 construct: synthetic gene, E. coli BL21(DE3)pLysS

[1] = molecular target: Streptomyces venezuelae OtsA (trehalose-6-phosphate synthase) (Streptomyces venezuelae); test: SEC; Superdex 200 10/300 GL calibrated with size standards; 20 mM HEPES pH 7.0, 10 mM MgCl2, 100 mM NaCl; size of the self-associated form
[2] = substrate: Nc1ncnc2c1ncn2[C@@H]1O[C@H](COP(=O)(O)OP(=O)(O)O[C@H]2O[C@H](CO)[C@@H](O)[C@H](O)[C@H]2O)[C@@H](O)[C@H]1O; test: continuous coupled assay of NDP release (pyruvate kinase/lactate dehydrogenase); format: biochemical, Streptomyces venezuelae; conditions: glucose 6-phosphate 5 mM fixed
Text: (§1) continuous coupled assay of NDP release (pyruvate kinase/lactate dehydrogenase) on S. venezuelae OtsA

[3] = substrate: Nc1nc2c(ncn2[C@@H]2O[C@H](COP(=O)(O)OP(=O)(O)O[C@H]3O[C@H](CO)[C@@H](O)[C@H](O)[C@H]3O)[C@@H](O)[C@H]2O)c(=O)[nH]1; test: as above; format: biochemical, Streptomyces venezuelae; conditions: glucose 6-phosphate 5 mM fixed
Text: as §1

[4] = substrate: Nc1nc2c(ncn2[C@@H]2O[C@H](COP(=O)(O)OP(=O)(O)OP(=O)(O)O)[C@@H](O)[C@H]2O)c(=O)[nH]1; test: stopped coupled assay of pyrophosphate (inorganic pyrophosphatase, malachite green); format: biochemical, Streptomyces venezuelae; conditions: glucose 1-phosphate 1 mM fixed
Text: (§2) stopped coupled assay of pyrophosphate (inorganic pyrophosphatase, malachite green) on SVEN_2781

[5] = substrate: O=P(O)(O)O[C@H]1O[C@H](CO)[C@@H](O)[C@H](O)[C@H]1O; test: as above; format: biochemical, Streptomyces venezuelae; conditions: GTP 0.3 mM fixed
Text: as §2

[6] = substrate: O=P(O)(O)O[C@H]1O[C@H](CO)[C@@H](O)[C@H](O)[C@@H]1O; test: as above; format: biochemical, Streptomyces venezuelae; conditions: GTP 0.3 mM fixed
Text: as §2

[7] = substrate: O=P(O)(O)OP(=O)(O)OP(=O)(O)OC[C@H]1O[C@@H](n2cnc3c(O)ncnc32)[C@H](O)[C@@H]1O; test: as above; format: biochemical, Streptomyces venezuelae; conditions: mannose 1-phosphate 2 mM fixed
Text: (§3) stopped coupled assay of pyrophosphate (inorganic pyrophosphatase, malachite green) on SVEN_3972

[8] = substrate: Nc1nc2c(ncn2[C@@H]2O[C@H](COP(=O)(O)OP(=O)(O)OP(=O)(O)O)[C@@H](O)[C@H]2O)c(=O)[nH]1; test: as above; format: biochemical, Streptomyces venezuelae; conditions: mannose 1-phosphate 2 mM fixed
Text: as §3

[9] = substrate: O=P(O)(O)O[C@H]1O[C@H](CO)[C@@H](O)[C@H](O)[C@H]1O; test: as above; format: biochemical, Streptomyces venezuelae; conditions: GTP 2 mM fixed
Text: as §3

[10] = substrate: O=P(O)(O)O[C@H]1O[C@H](CO)[C@@H](O)[C@H](O)[C@@H]1O; test: as above; format: biochemical, Streptomyces venezuelae; conditions: ITP 1 mM fixed
Text: as §3

[11] = molecular target: the molecule itself; test: SEC; Superdex 200 16/600; 50 mM MOPS pH 8.0, 0.025 mM EDTA, 5% (w/v) sucrose; size of the self-associated form

T1 sequence (F2R7M8 entry or part of it): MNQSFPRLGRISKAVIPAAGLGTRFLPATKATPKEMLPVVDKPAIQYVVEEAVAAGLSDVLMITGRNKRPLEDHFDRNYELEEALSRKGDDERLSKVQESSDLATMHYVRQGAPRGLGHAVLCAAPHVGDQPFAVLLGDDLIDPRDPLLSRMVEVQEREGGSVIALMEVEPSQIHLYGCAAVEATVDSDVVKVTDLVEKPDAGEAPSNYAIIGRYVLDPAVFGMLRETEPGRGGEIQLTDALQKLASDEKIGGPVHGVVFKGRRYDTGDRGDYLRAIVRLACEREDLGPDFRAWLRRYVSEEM

In the case of `O=c1ccn([C@@H]2O[C@H](COP(=O)(O)OP(=O)(O)OP(=O)(O)O)[C@@H](O)[C@H]2O)c(=O)[nH]1` [UTP], the “stopped coupled assay of pyrophosphate (inorganic pyrophosphatase, malachite gre)” value (SVEN_3027) is reported as “donor substrate preference was UTP > dTTP ≫ CTP > GTP > ATP > ITP”.

In the case of `Cc1cn([C@H]2C[C@H](O)[C@@H](COP(=O)(O)OP(=O)(O)OP(=O)(O)O)O2)c(=O)[nH]c1=O` [dTTP], the “stopped coupled assay of pyrophosphate (inorganic pyrophosphatase, malachite gre)” value (SVEN_3027) is reported as “donor substrate preference was UTP > dTTP ≫ CTP > GTP > ATP > ITP”.

In the case of “Streptomyces venezuelae OtsA (trehalose-6-phosphate synthase) (enzyme)”, the stoichiometry N [1] is reported as 2.

B1: S. venezuelae OtsA (Streptomyces venezuelae ATCC 10712) (protein)
chain: MASVLVASNRGPVSYVRGEDGELDARRGGGGLVSGLSAVSSQDSLWVCAALGEGDREAVRRGIGEPGVRMLDIAPDVYADAYNGIANSVLWFLHHHLYDIPREPVFDAAFRHRWEAYRAYNRAFAEALAAAADEGAAVLVQDYHLALVPGQLRELRPDLRIGHFTHTPWASPEYFRMLPADIGDELLRGMLGADELGFHTSAWASAFLSCAGGEQPRTRVRVHPLGVDAEELRALAHRPQVDERLARLREEVGDRKTIVRVDRTELSKNILRGLLAYRELLTVHPEWRDRVVHLASAYPSRQDLAAYRAYTASVTELAAEINAEFGTADWQPVLVSVEDDFTRSLAAYRLADVALVNPVRDGMNLVAKEIPVVSDAGCALVLSTGAGAYEELKEDALTVHPYDVSETAEALHTALTMPPPERADRTKRLASAATALPPQRWFLNQLEGLSDA
notes: synthetic gene, E. coli SoluBL21; 51 kDa with tag; homodimer (109 kDa by SEC)
In the case of B1, the Km [2] is reported as 0.44 ± 0.05 mM, the kcat [2] is reported as 29 ± 1 s⁻¹ and the kcat/Km [2] is reported as 67000 ± 7000 M⁻¹ s⁻¹. The Km [3] was 0.12 ± 0.02 mM, the kcat [3] was 139 ± 8 s⁻¹ and the kcat/Km [3] was 1.14e+06 ± 223000 M⁻¹ s⁻¹.

B2: SVEN_2781 (Streptomyces venezuelae ATCC 10712) (protein)
chain: MTEAILLVGGKGTRLRPLTVNTPKPMVPAAGVPFLTHQLARARAAGVEHIVLATSYLAEVFEPHFGDGSSLGLSLEYVTEEEPLGTGGAIRNVASRLHSGPDDPVLIFNGDILTGLDIQALVATHSSSGADVSLHLTRVEDPRAFGLVPTDATGRVTAFLEKPQTPEEIVTDQINAGAYVFRRSVIDTIPAGRPVSVERETFPDLLASGAHLQGMVDSTYWLDLGTPQAFVRGSADLVLGRAPSPAVPGRCGDRLVLPSARVAPDAKLTGGTVVGADAVVGDGARITGSTLLAGAVVEPGAVITDSLIGAGARIGARSVLTGAVIGDGAQVGPDNELRDGVRVWCDATLPAGAVRFSSDQ
notes: synthetic gene, E. coli BL21(DE3); active form dimer
For B2, the Km [4] was 0.26 ± 0.02 mM, the kcat [4] was 0.159 ± 0.002 s⁻¹ and the kcat/Km [4] was 610 ± 40 M⁻¹ s⁻¹. It also gave a Km [5] of 1.4 ± 0.1 mM, a kcat [5] of 0.171 ± 0.004 s⁻¹ and a kcat/Km [5] of 120 ± 10 M⁻¹ s⁻¹. For the same molecule, the Km [6] was 2.7 ± 0.3 mM, the kcat [6] was 0.167 ± 0.008 s⁻¹ and the kcat/Km [6] was 60 ± 10 M⁻¹ s⁻¹.

B3: Streptomyces venezuelae SVEN_3972 (ITP-mannose pyrophosphorylase) (enzyme, UniProt F2RFV6 1-238, looked up)
chain: MHTSPTQAVVLAGGQGSRLRPYTDDRPKPMVEIPGTGTPIIGHQLSWLAAEGVTDAVVSCGHLAEVLQEWLEGADLPLKVTTVVETEPLGRGGGLKYAAAHLPAPDQPWYATNGDIWTRFSLREMAAFHDERDALATLALARPRIPWGAVETDTFGHITDFIEAPPSPFLINAGVYVFSAAFTELLPDLGDHERTTFPRLARERRLAGFPLPQGAYWRAIDTAKDLTEAAKELAAQRG
notes: The His6 tag can be cleaved by TEV protease; also called SVEN15_3882
In the case of B3, the Km [7] is reported as 0.17 ± 0.02 mM, the kcat [7] is reported as 0.049 ± 0.001 s⁻¹ and the kcat/Km [7] is reported as 300 ± 30 M⁻¹ s⁻¹. The Km [8] was 0.47 ± 0.03 mM, the kcat [8] was 0.0156 ± 0.0004 s⁻¹ and the kcat/Km [8] was 33 ± 2 M⁻¹ s⁻¹. It also gave a Km [9] of 7.1 ± 0.8 mM, a kcat [9] of 0.014 ± 0.001 s⁻¹ and a kcat/Km [9] of 2 ± 0.3 M⁻¹ s⁻¹. For the same molecule, the Km [10] was 0.86 ± 0.08 mM, the kcat [10] was 0.0119 ± 0.0004 s⁻¹ and the kcat/Km [10] was 14 ± 1 M⁻¹ s⁻¹. The “stoichiometry N” value [11] was 2.
